# According to US20200010522A1 (SALUBRIS BIOTHERAPEUTICS, published 2020):
# B1: anti-HER3 mAb/NRG-1 fusion protein (recombinant fusion protein, with Fc mutations) (antibody, human IgG1, kappa)
# heavy: QVQLQQWGAGLLKPSETLSLTCAVYGGSFSGYYWSWIRQPPGKGLEWIGEINHSGSTNYNPSLKSRVTISVETSKNQFSLKLSSVTAADTAVYYCARDKWTWYFDLWGRGTLVTVSSASTKGPSVFPLAPSSKSTSGGTAALGCLVKDYFPEPVTVSWNSGALTSGVHTFPAVLQSSGLYSLSSVVTVPSSSLGTQTYICNVNHKPSNTKVDKRVEPKSCDKTHTCPPCPAPEFLGGPAVFLFPPKPKDTLMISRTPEVTCVVVDVSHEDPEVKFNWYVDGVEVHNAKTKPREEQYNSTYRVVSVLTVLHQDWLNGKEYKCKVSNKALPAPIEKTISKAKGQPREPQVYTLPPSREEMTKNQVSLTCLVKGFYPSDIAVEWESNGQPENNYKTTPPVLDSDGSFFLYSKLTVDKSRWQQGNVFSCSVMHEALHAHYTQKSLSLSPGKGGGGSGGGGSSHLVKCAEKEKTFCVNGGECFMVKDLSNPSRYLCKCPNEFTGDRCQNYVMASFYKAEELYQ
# light: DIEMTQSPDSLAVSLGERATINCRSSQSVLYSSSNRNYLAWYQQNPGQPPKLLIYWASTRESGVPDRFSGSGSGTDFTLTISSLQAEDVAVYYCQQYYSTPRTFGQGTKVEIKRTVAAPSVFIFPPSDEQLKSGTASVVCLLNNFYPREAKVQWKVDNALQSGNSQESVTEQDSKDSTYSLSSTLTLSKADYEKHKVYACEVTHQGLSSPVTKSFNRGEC
# notes: Made in CHO-derived HD-BIOP3 cells; also called the recombinant fusion protein disclosed herein; recombinant anti-HER3 mAb/NRG-1 fusion protein; copies: 2 + 2
# Molecular target: T1, monkey HER3 antigen (monkey)
# T1 construct: also called HER3 (monkey)
# Experiment: BIAcore (SPR)
binder,measurement,value
B1,Kd,0.397 nM
